For one molecule, titre of phage after biopanning and IC50 results are on record in patent US20100254972A1.

The target of test [1] is IL-RI-Fc (a fusion of IL-1RI and Fc). Description: phage-displayed dAb; no trypsin, 1 hr, room temp; biopanning on 1 nM IL-1RI-Fc.
Test [2] has the same target. Description: phage-displayed dAb; trypsin 100 µg/ml, overnight, 37 C; biopanning on 1 nM IL-1RI-Fc.
The target is the same in test [3]. Description: phage-displayed dAb; no trypsin, overnight, room temp; biopanning on 1 nM IL-1RI-Fc.
Test [4] shares this target. Description: phage-displayed dAb; trypsin 10 µg/ml, overnight, room temp; biopanning on 1 nM IL-1RI-Fc.
Test [5] has the same target. Nature of the test: phage-displayed dAb; trypsin 10 µg/ml, 1 hr, room temp; biopanning on 1 nM IL-1RI-Fc.
For test [6] the target is unchanged. Description: phage-displayed dAb; trypsin 10 µg/ml, overnight, 37 C; biopanning on 1 nM IL-1RI-Fc.
Test [7] has the same target. Nature of the test: phage-displayed dAb; trypsin 100 µg/ml, 1 hr, room temp; biopanning on 1 nM IL-1RI-Fc.
The target is the same in test [8]. Nature of the test: phage-displayed dAb; trypsin 100 µg/ml, overnight, room temp; biopanning on 1 nM IL-1RI-Fc.
The target in the next test is IL-1R1. Description: Receptor Binding Assay, inhibition of IL-1 binding to IL-RI.
The target of test [9] is IL-RI-Fc (a fusion of IL-1RI and Fc). Nature of the test: phage-displayed dAb; no trypsin, overnight, 37 C; biopanning on 1 nM IL-1RI-Fc.

Sequence of IL-RI-Fc (a fusion of IL-1RI and Fc) (P14778 whole entry, the tested form may be a part): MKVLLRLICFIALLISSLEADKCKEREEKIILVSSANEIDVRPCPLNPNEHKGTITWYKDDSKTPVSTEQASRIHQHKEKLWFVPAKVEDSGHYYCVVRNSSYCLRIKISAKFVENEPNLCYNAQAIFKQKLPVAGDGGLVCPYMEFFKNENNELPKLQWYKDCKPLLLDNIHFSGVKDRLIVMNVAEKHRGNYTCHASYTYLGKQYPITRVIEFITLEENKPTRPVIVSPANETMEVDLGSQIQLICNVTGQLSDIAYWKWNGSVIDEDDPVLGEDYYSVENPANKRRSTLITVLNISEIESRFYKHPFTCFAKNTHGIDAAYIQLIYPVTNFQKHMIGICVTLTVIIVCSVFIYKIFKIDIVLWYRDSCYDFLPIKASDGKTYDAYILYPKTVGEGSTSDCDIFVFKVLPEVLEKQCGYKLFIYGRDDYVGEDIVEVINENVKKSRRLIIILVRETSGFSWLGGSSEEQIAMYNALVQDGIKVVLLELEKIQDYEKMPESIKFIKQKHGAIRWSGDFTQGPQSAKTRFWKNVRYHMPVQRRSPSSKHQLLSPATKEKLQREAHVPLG
Sequence of IL-1R1 (P14778 whole entry, the tested form may be a part): as above

B1: DOM4-130-54 (protein)
VL: DIQMTQSPSSLSASVGDRVTITCRASQDIYLNLDWYQQKPGKAPKLLINFGSELQSGVPSRFSGSGYGTDFTLTISSLQPEDFATYYCQPSFYFPYTFGQGTKVEIKR
B1: the titre of phage after biopanning in test [1] worked out at 6.6e+09; in [2] it was 2.04e+06; in test [3], 7.8e+09; in test [4] it was 7.2e+09; in [5] it was 7.2e+09; in [6] it was 3.84e+08. Besides, the values for the titre of phage after biopanning in test [7], in test [8] and in test [9] were 1.8e+10, 2.16e+09 and 7.2e+09, respectively. The IC50 in the test with IL-1R1 is 0.28 nM.
